Reference: article PMC6415948

How the values were obtained:
Experiment in all cases: SPR
[1] = target: Human IgG1 Fc, G0 N-glycan (agalactosylated, afucosylated) (human)
[2] = target: Human IgG1 Fc, G0F N-glycan (agalactosylated, core-fucosylated) (human)
[3] = target: Human IgG1 Fc, G2F N-glycan (digalactosylated, core-fucosylated) (human)
[4] = target: Human IgG1 Fc, fucosylated, mixed N-glycans (predominantly G0F/G1F/G2F) (human)
[5] = target: Human IgG1 Fc, afucosylated, mixed N-glycans (G0, G1 and G2) (human)

Substance	Kd [1] [nM]	Kd [2] [nM]	Kd [3] [nM]	Kd [4] [nM]	Kd [5] [nM]
CD16a N38Q/N74Q/N169Q following treatment with Endoglycosidase F1 (N-glycans truncated to a single (1)GlcNAc) (receptor)	1.3	2.9	1.6	–	–
CD16a (Fc γ receptor IIIa), wild type, Man5 glycoform	2.4	18	9.9	57	2.5
CD16a N38Q/N45Q/N74Q/N169Q, Man5 glycoform (receptor)	–	360	–	–	–
CD16a, wild type, Man9 glycoform (receptor)	–	–	–	64	4

Second part, the substance after the results:

Kd [1] [nM]	Kd [2] [nM]	Kd [3] [nM]	Kd [4] [nM]	Kd [5] [nM]	Substance
–	–	–	245	38	CD16a, wild type, complex-type glycoform (receptor)
1.7	3.7	2	–	–	CD16a, wild type, following treatment with Endoglycosidase F1 (N-glycans truncated to a single (1)GlcNAc) (receptor)
